This note sets out measurements from patent US20240294594A1 (CYTUNE PHARMA, published 2024).

Assay [1] deals with T1, FcγRIIIa V158 (human, UniProt P08637 17-208, limits assumed).
T1 construct: also called hFcγRIIIaV158; CD16a V158
Kind of assay: SPR (Biacore 8K), ratio of 1/Kd values. As to the method:
(§1) SPR experiments were performed on a Biacore 8K (Cytiva, Chicago, IL, USA), using CM5 sensor chips (Cytiva) with an immobilization using THE His tag antibodies (Genscript). FcγRIIIa V158, FcγRIIIa F158 or FcγRIIb protein were used for capture with a contact time of 30 sec at a flow rate of […] in a 1×HBS-EP+ running buffer. Association/dissociation rates were measured for each tested immunocytokine at a flow rate of 30 μl/min with concentration serial dilution in a suitable range with an association time/dissociation time of 300 s/300 s except for constructs with DLE and DE with and without afucosylation, where association/dissociation time of 120 s/1200 s was applied.

Assay [2] concerns the target T2, FcγRIIIa F158 (human, UniProt P08637 17-208, limits assumed).
T2 construct: also called hFcγRIIIaF158; CD16a F158
Kind of assay: SPR (Biacore 8K), ratio of 1/Kd values. The protocol: as §1
In general terms: Surface plasmon resonance follows binding to a sensor surface in real time, without labels.

Assay [3] concerns the target T1, FcγRIIIa V158. The experiment in a line: SPR (Biacore 8K), receptor captured via anti-His antibody. As to the method:
as §1

Assay [4] concerns the target T3, FcγRIIb (UniProt P31994 46-217, limits assumed).
T3 construct: also called FcgRIIb
T3 sequence (looked up): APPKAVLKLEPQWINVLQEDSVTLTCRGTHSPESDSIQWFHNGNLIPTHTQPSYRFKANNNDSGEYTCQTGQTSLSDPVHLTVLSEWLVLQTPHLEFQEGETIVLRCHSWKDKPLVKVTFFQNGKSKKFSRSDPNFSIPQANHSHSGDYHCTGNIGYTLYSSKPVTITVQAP
Described as above. As to the method: as §1

Assay [5] addresses T2, FcγRIIIa F158. Described as above. As to the method: as §1

T1 sequence (P08637 17-208 F176V limits assumed): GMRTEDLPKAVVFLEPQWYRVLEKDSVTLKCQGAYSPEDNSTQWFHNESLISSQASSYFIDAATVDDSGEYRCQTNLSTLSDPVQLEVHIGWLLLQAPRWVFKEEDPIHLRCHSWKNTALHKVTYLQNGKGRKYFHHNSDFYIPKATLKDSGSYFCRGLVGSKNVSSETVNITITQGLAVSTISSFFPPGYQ
T2 sequence (P08637 17-208 limits assumed): as the sequence (P08637 17-208 F176V limits assumed) above, with V160F counted along it

B1: hCl1a AAA-RLI DANA (other)
heavy 1: QVQLVQSGAEVKKPGASVKVSCKASGYTFTDYAMHWVRQAPGQRLEWMGWINTYTGKPTYAQKFQGRVTITRDTSASTAYMELSSLRSEDTAVYYCARAVFYGYTMDAWGQGTLVTVSSASTKGPSVFPLAPSSKSTSGGTAALGCLVKDYFPEPVTVSWNSGALTSGVHTFPAVLQSSGLYSLSSVVTVPSSSLGTQTYICNVNHKPSNTKVDKKVEPKSCDKTHTCPPCPAPELLGGPSVFLFPPKPKDTLMISRTPEVTCVVVDVSHEDPEVKFNWYVDGVEVHNAKTKPREEQYNATYRVVSVLTVLHQDWLNGKEYKCKVSNKALPAPIAATISKAKGQPREPQVYTLPPSRDELTKNQVSLWCLVKGFYPSDIAVEWESNGQPENNYKTTPPVLDSDGSFFLYSKLTVDKSRWQQGNVFSCSVMHEALHNHYTQKSLSLSPGITCPPPMSVEHADIWVKSYSLYSRERYICNSGFKRKAGTSSLTECVLNKATNVAHWTTPSLKCIRDPALVHQRPAPPSGGSGGGGSGGGSGGGGSGGNWVNVISDLKKIEDLIQSMHIDATLYTESDVHPSCKVTAMKCFLLELQVISLESGDASIHATVEALIILANNSLSSNAQVTESGCKECEELEEKNIKEFLQSFVHIVQMFINTS
heavy 2: QVQLVQSGAEVKKPGASVKVSCKASGYTFTDYAMHWVRQAPGQRLEWMGWINTYTGKPTYAQKFQGRVTITRDTSASTAYMELSSLRSEDTAVYYCARAVFYGYTMDAWGQGTLVTVSSASTKGPSVFPLAPSSKSTSGGTAALGCLVKDYFPEPVTVSWNSGALTSGVHTFPAVLQSSGLYSLSSVVTVPSSSLGTQTYICNVNHKPSNTKVDKKVEPKSCDKTHTCPPCPAPELLGGPSVFLFPPKPKDTLMISRTPEVTCVVVDVSHEDPEVKFNWYVDGVEVHNAKTKPREEQYNATYRVVSVLTVLHQDWLNGKEYKCKVSNKALPAPIAATISKAKGQPREPQVYTLPPSRDELTKNQVSLSCAVKGFYPSDIAVEWESNGQPENNYKTTPPVLDSDGSFFLVSKLTVDKSRWQQGNVFSCSVMHEALHNHYTQKSLSLSPG
light: DIQMTQSPSSLSASVGDRVTITCRASEDIYSNLAWYQQKPGKAPKLLIFSVKRLQDGVPSRFSGSGSGTDFTLTISSLQPEDFATYYCLQGSNFPLTFGQGTKVEIKRTVAAPSVFIFPPSDEQLKSGTASVVCLLNNFYPREAKVQWKVDNALQSGNSQESVTEQDSKDSTYSLSSTLTLSKADYEKHKVYACEVTHQGLSSPVTKSFNRGEC
notes: Immunocytokine; also called SOT202-AAA-DANA
As for B1, the “A/I (V158), affinity towards FcγRIIIa over affinity towards FcγRIIb” value in assay [1] was determined as 691 ratio. Also, the “A/I (F158), affinity towards FcγRIIIa over affinity towards FcγRIIb” value in assay [2] was determined as 244 ratio. Besides, the Kd (as a rule, the equilibrium constant for the complex coming apart) is 35.6 nM in assay [3], 24.6 µM in assay [4] and 101 nM in assay [5].

B2: hCl1a AAA-RLI DANA afuc (other)
heavy 1: QVQLVQSGAEVKKPGASVKVSCKASGYTFTDYAMHWVRQAPGQRLEWMGWINTYTGKPTYAQKFQGRVTITRDTSASTAYMELSSLRSEDTAVYYCARAVFYGYTMDAWGQGTLVTVSSASTKGPSVFPLAPSSKSTSGGTAALGCLVKDYFPEPVTVSWNSGALTSGVHTFPAVLQSSGLYSLSSVVTVPSSSLGTQTYICNVNHKPSNTKVDKKVEPKSCDKTHTCPPCPAPELLGGPSVFLFPPKPKDTLMISRTPEVTCVVVDVSHEDPEVKFNWYVDGVEVHNAKTKPREEQYNATYRVVSVLTVLHQDWLNGKEYKCKVSNKALPAPIAATISKAKGQPREPQVYTLPPSRDELTKNQVSLWCLVKGFYPSDIAVEWESNGQPENNYKTTPPVLDSDGSFFLYSKLTVDKSRWQQGNVFSCSVMHEALHNHYTQKSLSLSPGITCPPPMSVEHADIWVKSYSLYSRERYICNSGFKRKAGTSSLTECVLNKATNVAHWTTPSLKCIRDPALVHQRPAPPSGGSGGGGSGGGSGGGGSGGNWVNVISDLKKIEDLIQSMHIDATLYTESDVHPSCKVTAMKCFLLELQVISLESGDASIHATVEALIILANNSLSSNAQVTESGCKECEELEEKNIKEFLQSFVHIVQMFINTS
heavy 2: QVQLVQSGAEVKKPGASVKVSCKASGYTFTDYAMHWVRQAPGQRLEWMGWINTYTGKPTYAQKFQGRVTITRDTSASTAYMELSSLRSEDTAVYYCARAVFYGYTMDAWGQGTLVTVSSASTKGPSVFPLAPSSKSTSGGTAALGCLVKDYFPEPVTVSWNSGALTSGVHTFPAVLQSSGLYSLSSVVTVPSSSLGTQTYICNVNHKPSNTKVDKKVEPKSCDKTHTCPPCPAPELLGGPSVFLFPPKPKDTLMISRTPEVTCVVVDVSHEDPEVKFNWYVDGVEVHNAKTKPREEQYNATYRVVSVLTVLHQDWLNGKEYKCKVSNKALPAPIAATISKAKGQPREPQVYTLPPSRDELTKNQVSLSCAVKGFYPSDIAVEWESNGQPENNYKTTPPVLDSDGSFFLVSKLTVDKSRWQQGNVFSCSVMHEALHNHYTQKSLSLSPG
light: DIQMTQSPSSLSASVGDRVTITCRASEDIYSNLAWYQQKPGKAPKLLIFSVKRLQDGVPSRFSGSGSGTDFTLTISSLQPEDFATYYCLQGSNFPLTFGQGTKVEIKRTVAAPSVFIFPPSDEQLKSGTASVVCLLNNFYPREAKVQWKVDNALQSGNSQESVTEQDSKDSTYSLSSTLTLSKADYEKHKVYACEVTHQGLSSPVTKSFNRGEC
modifications: afucosylated Fc N-glycan
B2: in assay [1], the “A/I (V158), affinity towards FcγRIIIa over affinity towards FcγRIIb” value was determined as 1010 ratio. The “A/I (F158), affinity towards FcγRIIIa over affinity towards FcγRIIb” value in assay [2] is 380 ratio. The Kd in assay [3] turned out to be 17.3 nM; in assay [4], 17.5 µM; in assay [5] it was 46.1 nM.

B3: hCl1a DLE-RLI DANA (other)
heavy 1: QVQLVQSGAEVKKPGASVKVSCKASGYTFTDYAMHWVRQAPGQRLEWMGWINTYTGKPTYAQKFQGRVTITRDTSASTAYMELSSLRSEDTAVYYCARAVFYGYTMDAWGQGTLVTVSSASTKGPSVFPLAPSSKSTSGGTAALGCLVKDYFPEPVTVSWNSGALTSGVHTFPAVLQSSGLYSLSSVVTVPSSSLGTQTYICNVNHKPSNTKVDKKVEPKSCDKTHTCPPCPAPELLGGPDVFLFPPKPKDTLMISRTPEVTCVVVDVSHEDPEVKFNWYVDGVEVHNAKTKPREEQYNSTYRVVSVLTVLHQDWLNGKEYKCKVSNKALPLPEEKTISKAKGQPREPQVYTLPPSRDELTKNQVSLWCLVKGFYPSDIAVEWESNGQPENNYKTTPPVLDSDGSFFLYSKLTVDKSRWQQGNVFSCSVMHEALHNHYTQKSLSLSPGITCPPPMSVEHADIWVKSYSLYSRERYICNSGFKRKAGTSSLTECVLNKATNVAHWTTPSLKCIRDPALVHQRPAPPSGGSGGGGSGGGSGGGGSGGNWVNVISDLKKIEDLIQSMHIDATLYTESDVHPSCKVTAMKCFLLELQVISLESGDASIHATVEALIILANNSLSSNAQVTESGCKECEELEEKNIKEFLQSFVHIVQMFINTS
heavy 2: QVQLVQSGAEVKKPGASVKVSCKASGYTFTDYAMHWVRQAPGQRLEWMGWINTYTGKPTYAQKFQGRVTITRDTSASTAYMELSSLRSEDTAVYYCARAVFYGYTMDAWGQGTLVTVSSASTKGPSVFPLAPSSKSTSGGTAALGCLVKDYFPEPVTVSWNSGALTSGVHTFPAVLQSSGLYSLSSVVTVPSSSLGTQTYICNVNHKPSNTKVDKKVEPKSCDKTHTCPPCPAPELLGGPDVFLFPPKPKDTLMISRTPEVTCVVVDVSHEDPEVKFNWYVDGVEVHNAKTKPREEQYNSTYRVVSVLTVLHQDWLNGKEYKCKVSNKALPLPEEKTISKAKGQPREPQVYTLPPSRDELTKNQVSLSCAVKGFYPSDIAVEWESNGQPENNYKTTPPVLDSDGSFFLVSKLTVDKSRWQQGNVFSCSVMHEALHNHYTQKSLSLSPG
light: DIQMTQSPSSLSASVGDRVTITCRASEDIYSNLAWYQQKPGKAPKLLIFSVKRLQDGVPSRFSGSGSGTDFTLTISSLQPEDFATYYCLQGSNFPLTFGQGTKVEIKRTVAAPSVFIFPPSDEQLKSGTASVVCLLNNFYPREAKVQWKVDNALQSGNSQESVTEQDSKDSTYSLSSTLTLSKADYEKHKVYACEVTHQGLSSPVTKSFNRGEC
notes: Immunocytokine; also called SOT202-DLE-DANA
In the case of B3, the “A/I (V158), affinity towards FcγRIIIa over affinity towards FcγRIIb” value in assay [1] was 464 ratio. Further, in assay [2], the “A/I (F158), affinity towards FcγRIIIa over affinity towards FcγRIIb” value was 228 ratio. Moreover, the Kd stood at 5.71 nM in assay [3], 2.65 µM in assay [4] and 11.6 nM in assay [5].
